In patent publication US20220276234A1, “POINT-OF-CARE IMMUNOASSAY FOR QUANTITATIVE SMALL ANALYTE DETECTION” (priority 2011, published 2022):
Where a chain is given by its changes, count along the chain named.

What was measured:
[1] = compared with parent compound aripiprazole and dehydro aripiprazole; cited from earlier work
[2] = in vivo; cited from earlier work
[3] = cited from earlier work
[4] = system: B7-HTHC immune complex; assay: Capillary electrophoresis test of candidate aptamers; assay type: binding; conditions: electropherogram peak shift, FIGS. 10A and 10B
Experimental: Following completion of aptamer selection, aptamers from the first, fifth, and tenth rounds of Structure Switching SELEX were sequenced using standard Next-Generation Sequencing (NGS) methods (AKESOgen). Of the sequences obtained by NGS, ten sequences per aptamer were tested using Capillary Electrophoresis (CE) and in a proprietary assay utilizing real-time PCR.
The candidate aptamers were initially tested using capillary electrophoresis. Of the 10 B7-HTHC aptamers, 3 were identified as candidate binders. […] This is likely due to the difference between the composition of the buffer required for capillary electrophoresis and the composition of the buffer used during the SELEX selection process.

[5] = system: B7-HTHC immunocomplex; assay: Sandwich type ELISA assay with selected derived B7-HTHC aptamers (5' biotin, HRP-streptavidin, TMB); assay type: binding
Experimental: The 11 aptamers were synthesized with a 5′ biotin such that they could be detected in ELISA-type assays. The aptamers were tested for their ability to bind to the target in two ways. In both assays, the antibody was coated onto the walls of a microtiter plate. In the first assay, HTHC was added to the antibody. After washing away unbound HTHC, the aptamers were added. In the second assay, the aptamers were added to the wells with HTHC simultaneously. In both assays, after washing away unbound aptamer, the plates were incubated with HRP-streptavidin, and then assayed for the amount of aptamer that remained bound to the immunocomplex using a colorimetric TMB assay.

[6] = system: B7-THC immune complex; assay: Proprietary qPCR-based aptamer binding assay, immune complexes anchored to solid support; conditions: qPCR amplification, FIG. 11
Experimental: (§1) Binding selectivity was tested in varying salt conditions to determine optimal conditions for selection. Using a proprietary binding assay, the aptamers were allowed to incubate with immune complexes that were anchored to a solid support. After the incubation period, the immune complexes were washed, and the amount of aptamer binding was assayed via qPCR. Increased aptamer binding to the immune complex allowed faster detection of DNA amplification.
(§2) Of the aptamers tested, only one aptamer satisfied the following requirements: (1) binding to the correct immune complex, (2) no binding to the antibody alone, and (3) no binding to the antibody and the incorrect metabolite. FIG. 11 is a qPCR amplification curve showing the binding of Aptamer B7C4 with the immune complex B7-HTHC, the immune complex B7-THC, the B7 antibody alone, and a negative control. Theoretically, every additional cycle indicates 2 times fewer bound aptamer molecules.

[7] = system: B7-HTHC immune complex; assay: as above; conditions: qPCR amplification, FIG. 11
Experimental: as §1, §2

[8] = system: B7 antibody alone; assay: as above; conditions: qPCR amplification, FIG. 11
Experimental: as §1, §2

[9] = separate incubation: aptamers added after HTHC and washing, FIG. 16A
[10] = simultaneous incubation: aptamers added with HTHC, FIG. 16B

O=C(O)CCCOc1ccc2c(c1)NC(=O)CC2 [OPC-3373]
Water solubility [1]: much more water soluble

CCCCCc1cc(O)c2c(c1)OC(C)(C)[C@@H]1CCC(C)=C[C@@H]21 [THC, Delta-9-tetrahydrocannabinol]
Excreted in the feces [2]: More than 55% | Excreted in the urine [2]: approximately 20%

CN1CCCC1c1cccnc1 (stereo not shown) [nicotine]
Time to reach the brain after inhalation ([3]; crosses the blood-brain barrier): 10 to 20 s | Elimination half-life in the body ([3]; in vivo): approximately two

B1: B7C1: candidate DNA aptamer for antibody B7 and HTHC (nucleic acid)
DNA: CCTGTCAGTTGCTTACCGGCCCAGGTGTAGTAACTGCAGGGATTCTTAACGTAGCTACCGGGTGTAGTGTCCTTGCTCGT
modifications: DNA, backbone not given here; further chemistry not fully specified
notes: candidate DNA aptamer for antibody B7 and HTHC
Binding to immune complex by capillary electrophoresis [4]: peak shifts associated with the introduction of the immune complex

B2: Aptamer 493: selected derived B7-HTHC DNA aptamer (nucleic acid)
DNA: CCTGTCAGTTGCTTACCGGGCACGAGTACGAGACTGCAGGATTCTTCTACACTGCACCCCATGTAGTGTCCTTGCTC
modifications: DNA, backbone and methylation of C not given here
Normalized absorption signal, aptamer binding to immunocomplex [5, 9]: the opposite behavior compared to that of aptamer 444 | Normalized absorption signal, aptamer binding to immunocomplex [5, 10]: the opposite behavior compared to that of aptamer 444

B3: B7C4: parent DNA aptamer selective for the B7-HTHC immune complex (nucleic acid)
DNA: CCTGTCAGTTGCTTACCGGGCACGAGTACGAGACTGCAGGATTCTTCTACACTGCCCCCCATGTAGTGTCCTTGCTCGT
modifications: DNA, backbone not given here; further chemistry not fully specified
Aptamer binding to B7-THC immune complex [6]: minimal binding | Aptamer binding to B7-HTHC immune complex [7]: significant binding | Aptamer binding to B7-HTHC immune complex ([7]; listed as B7C4-HTHC): high affinity | Aptamer binding to B7 antibody alone [8]: minimal binding | Aptamer binding to B7 antibody alone ([8]; listed as B7C4-HTHC): residual binding affinity

B4: Aptamer 815: selected derived B7-HTHC DNA aptamer, family 2 (nucleic acid)
DNA: B3 DNA with G30T
modifications: DNA, backbone and methylation of C not given here
Normalized absorption signal, aptamer binding to immunocomplex [5, 9]: high binding | Normalized absorption signal, aptamer binding to immunocomplex [5, 10]: lost this ability

B5: Aptamer 444: selected derived B7-HTHC DNA aptamer (nucleic acid)
DNA: B3 DNA with C56G
modifications: DNA, backbone and methylation of C not given here
Normalized absorption signal, aptamer binding to immunocomplex [5, 9]: high sensitivity | Normalized absorption signal, aptamer binding to immunocomplex [5, 10]: reduced sensitivity

B6: Aptamer 368.2: selected derived B7-HTHC DNA aptamer (nucleic acid)
DNA: B3 DNA with C56T
modifications: DNA, backbone and methylation of C not given here
Normalized absorption signal, aptamer binding to immunocomplex [5, 9]: significant binding | Normalized absorption signal, aptamer binding to immunocomplex [5, 10]: significant binding
